Assay results taken from publication PMC11077089, “Molecular basis of A. thaliana KEOPS complex in biosynthesizing tRNA t6A”.

T1: KAE1;BUD32;CGI121;PCC1 (Arabidopsis thaliana;Arabidopsis …, UniProt O49653;Q94K14;Q6NMZ4;Q8GWD7 1-353;1-226;1-172;1-96, |||)
T1 sequence 1: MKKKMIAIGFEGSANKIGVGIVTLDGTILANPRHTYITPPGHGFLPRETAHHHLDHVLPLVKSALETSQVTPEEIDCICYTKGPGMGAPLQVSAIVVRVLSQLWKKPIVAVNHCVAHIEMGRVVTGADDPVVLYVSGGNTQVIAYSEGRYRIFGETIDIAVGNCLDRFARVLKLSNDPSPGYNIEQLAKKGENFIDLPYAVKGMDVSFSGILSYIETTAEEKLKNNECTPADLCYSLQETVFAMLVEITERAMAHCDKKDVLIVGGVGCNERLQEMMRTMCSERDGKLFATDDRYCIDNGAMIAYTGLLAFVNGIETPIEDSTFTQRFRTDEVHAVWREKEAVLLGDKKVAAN
T1 sequence 2: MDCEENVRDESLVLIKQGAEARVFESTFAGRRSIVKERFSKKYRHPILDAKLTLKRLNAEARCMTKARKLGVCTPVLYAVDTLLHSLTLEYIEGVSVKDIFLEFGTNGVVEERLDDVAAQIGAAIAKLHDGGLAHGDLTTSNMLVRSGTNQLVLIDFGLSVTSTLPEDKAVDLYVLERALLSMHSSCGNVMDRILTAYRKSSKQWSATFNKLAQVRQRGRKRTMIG
T1 sequence 3: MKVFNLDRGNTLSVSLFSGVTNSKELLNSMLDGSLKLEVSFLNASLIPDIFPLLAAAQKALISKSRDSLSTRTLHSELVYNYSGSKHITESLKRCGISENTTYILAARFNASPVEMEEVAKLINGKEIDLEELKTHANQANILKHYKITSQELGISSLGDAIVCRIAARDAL
T1 sequence 4: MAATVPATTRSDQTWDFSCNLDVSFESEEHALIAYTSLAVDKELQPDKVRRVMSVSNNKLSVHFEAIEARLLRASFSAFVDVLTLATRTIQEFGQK

B1: tRNAThrCGU (structured_RNA)
RNA: GCCUCCGUAGCAUAGUGGUAUUGCGUUCGCUUCGUAAGCGAAAGGUCGUGAGUUCGAUCCUCACCGUAGGCUCCA
B2: tRNAIleAAU (structured_RNA)
RNA: GGCCUAUUAGCUCAGUUGGUUAGAGCGUCGUGCUAAUAACGCGAAGGUCACAGGUUCGAUCCCUGUAUAGGCCACCA
B3: tRNASerGCU (structured_RNA)
RNA: GUCGCUUUGGCCGAGUGGUUAAGGCGUGUUCCUGCUAAGUACAUGGGGUUUCCCCGCGAGAGUUCGAAUCUGUCAGGCGACGCCA
B4: tRNAAsnGUU (structured_RNA)
RNA: GCUGGAAUAGCUCAGUAGGUUUAGAGCGUGUGGCUGUUAACCUCAAGGUCGGAGGUUCGACCCCUCCUUUCAGCGCCA
B5: tRNALysUUU (structured_RNA)
RNA: GCCGUCUUAGCUCAGCGGUAGAGCGCGUGGCUUUUAACCACGUGGCCGUGGGUUCGAUCCCCACAGACGGCGCCA
B6: tRNAArgUCU (structured_RNA)
RNA: GCGCCCGUGGCCUAAUGGAUAAGGCGUUUGACUUCUAAUCAAACGAUUGUGGGUUCGAGUCCCACCGGGCGUGCCA
B7: tRNAIleUAU (structured_RNA)
RNA: GCUCCCGUAGCUCAGUUGGUUAGAGCGUUGGUCUUAUGAGCCGAAGGUCGCGGGUUCGAGCCCCGCCGGAAGCACCA

molecular target: T1, KAE1;BUD32;CGI121;PCC1; experiment: EMSA; 20 uM each; MST: 20 mM PBS pH 7.5, 300 mM NaCl, 0.05% Tween 20, 25 C, 50 nM RNA; EMSA: 20 mM Tris-HCl pH 7.5, 300 mM NaCl, 5 mM b-mercaptoethanol, 20% glycerol, agarose gel in Tris-glycine pH 8.0 (8.5 for FAM-RNA), 4 C; details: protein: recombinant;recombinant;recombinant;recombinant; tags: none (6His on partner PCC1);none (6His on partner CGI121);6His (C-term);6His (C-term); chain copies: 2;2;2;2; tRNA cloverleaf

Binding result, binds:
B1
B2
B3
B4
B5
B6
B7
